Measurements as given in article PMC7807878, “Development of an engineered peptide antagonist against periostin to overcome doxorubicin resistance in breast cancer” (BMC Cancer, 2021).

How the values were obtained:
Format in all cases: cell-based
MDA-MB-231 cells [1] = test: Proliferation assay (MTS), MDA-MB-231; conditions: rPN 100 ng/ml, 72 h, P-value = 0.004
Description: (§1) The proliferation assay of BCA cells was determined by the cell viability assay using CellTiter 96® Aqueous One Solution Cell Proliferation Assay (MTS assay) (Promega, Madison, WI, USA). Briefly, 3 × 10^3 cells in 100 μl medium were seeded in 96-well plates for 24 h. The day 1 baseline determination used the MTS assay following company instructions. For the experiment, cells were placed into new media containing 2% FBS with or without rPN (100 ng/ml) and anti-PN peptide (1 μM) and cells were cultured for a further 72 h. After treatment, cell viability was measured by the MTS assay. Proliferation rate was calculated as the folding of cell numbers increased from the baseline.

MCF-7 cells [2] = test: Proliferation assay (MTS), MCF-7; conditions: rPN 100 ng/ml, 72 h, not statistically significant
Description: as §1

MDA-MB-231 cells [3] = test: Wound healing migration assay, MDA-MB-231; conditions: rPN 100 ng/ml vs untreated control; P-value = 0.033
Description: (§2) The wound healing assay was performed to determine migration activity of the BCA cells after treatment under various conditions. Briefly, 5 × 10^4 cells of parental BCA cells or mock/PN-transfected cells were seeded in 24-well culture plates with their regular media for 24 h and media changed to 1% FBS with or without rPN (100 ng/ml) and anti-PN peptide (1 μM) and culture continued for 1 day until they reached approximately 95% confluency. Wounds were applied by scratching using 200 μl micropipette tip in a single straight line. The media with floating cells would be removed and refilled with the new experimental media. The culture process would be continued for a further 24 h and photos of the area would be taken at 8 h intervals. The migration area would be analyzed from the photos taken using TScratch version 1.0 software (https://github.com/cselab/TScratch) and migration activity calculated as μm^2/h. Independent duplicated experiments were performed.

MCF-7 cells [4] = test: Wound healing migration assay, MCF-7; conditions: rPN 100 ng/ml vs untreated control; P-value = 0.030
Description: as §2

MDA-MB-231 cells [5] = test: Drug sensitivity (MTS), MDA-MB-231; conditions: doxorubicin treated MDA-MB-231, rPN treatment experiment
Description: (§3) Determination the IC50 of BCA cells in response to chemotherapeutic drugs was analyzed by MTS assay. The experiment started from 5 × 10^3 of BCA cells in 100 μl medium that were seeded in 96-well plates for 24 h, then media was changed with different concentrations of new chemotherapeutic drugs [doxorubicin (S1208), paclitaxel (S1150), cisplatin (S1166), 5-fluorouracil (5-FU) (S1209) and gemcitabine (S1714) that were purchased from Selleck Chemicals, Houston, TX, USA] with or without rPN and anti-PN peptide for a further 48 h. After that, cell viability was determined by the MTS assay. Combination index (CI) was calculated by IC50 of combination of drug and PN or anti-PN peptide divided by IC50 of chemotherapeutic drug alone.
(§4) ANOVA test or Student’s t-test were applied for statistical analysis of the experiments. GraphPad Prism® version 7.04 software (GraphPad Software, San Diego, CA, USA) was used in calculation of IC50 values of chemotherapeutic drugs and PASW Statistics software version 18 (SPSS, IBM, Armonk, NY, USA) was used for other analysis. Dose-responses were compared by Holm-Sidak’s multiple comparison test. Mann-Whitney ranked-sum test was used for comparisons between normal and patient serum PN. Chi-square or Fisher’s exact test were used to determine the correlation between PN expression and clinical data in BCA patients. […]

MCF-7 cells [6] = test: Drug sensitivity (MTS), MCF-7; conditions: doxorubicin treated MCF-7, rPN treatment experiment
Description: as §3, §4

[7] = tested on: Akt phosphorylation (pAKT) in BCA cells; test: Western blot, Akt phosphorylation; conditions: parental BCA cells (MDA-MB-231, MCF-7), PN alone, duplicate experiments
Description: (§5) To determine the secreted PN amount in conditioned-media of each cell, 3 × 10^5 cells were seeded into 6-well plates with 3 ml of complete media. Cell media were removed the next day and washed with phosphate-buffered saline (PBS), and serum free media was added. Media was collected at 24 h, centrifuged and supernatant was taken and concentrated by Vivaspin®6 (VS0691, Sartorius, Goettingen, Germany). Protein concentration was determined by Bradford reagent (#5000006, Bio-Rad Laboratories, Hercules, CA, USA) and the amounts were adjusted to 5 μg per loading. To determine protein expression or phosphorylation in the cellular part, 2 × 10^6 cells were lysed with RIPA buffer (sc-24,948, Santa Cruz Biotechnology, Inc., Dallas, TX, USA). Each sample was separated by sodium dodecyl sulfate (SDS) polyacrylamide gel electrophoresis (PAGE) and transferred to PVDF membrane. […] HRP was detected by Pierce™ enhanced chemiluminescence (ECL) reagent (Thermo Fisher Scientific) and chemiluminescence signal was detected by G:BOX gel documentation system (Syngene, Cambridge, UK). Expression level of PN was determined by ImageJ version 1.52a software (National Institutes of Health, Bethesda, MD, USA).
(§6) Parental BCA cells were treated with PN and anti-PN peptides and the intracellular signaling pathway determined by western blot analysis. Akt phosphorylation and expression of survivin were detected. […]

[8] = tested on: survivin expression in BCA cells; test: Western blot, survivin expression; conditions: parental BCA cells (MDA-MB-231, MCF-7), PN alone, duplicate experiments
Description: as §5, §6

B1: rPN: recombinant PN (periostin), BioVendor (protein)
chain: NNHYDKILAHSRIRGRDQGPNVCALQQILGTKKKYFSTCKNWYKKSICGQKTTVLYECCPGYMRMEGMKGCPAVLPIDHVYGTLGIVGATTTQRYSDASKLREEIEGKGSFTYFAPSNEAWDNLDSDIRRGLESNVNVELLNALHSHMINKRMLTKDLKNGMIIPSMYNNLGLFINHYPNGVVTVNCARIIHGNQIATNGVVHVIDRVLTQIGTSIQDFIEAEDDLSSFRAAAITSDILEALGRDGHFTLFAPTNEAFEKLPRGVLERIMGDKVASEALMKYHILNTLQCSESIMGGAVFETLEGNTIEIGCDGDSITVNGIKMVNKKDIVTNNGVIHLIDQVLIPDSAKQVIELAGKQQTTFTDLVAQLGLASALRPDGEYTLLAPVNNAFSDDTLSMDQRLLKLILQNHILKVKVGLNELYNGQILETIGGKQLRVFVYRTAVCIENSCMEKGSKQGRNGAIHIFREIIKPAEKSLHEKLKQDKRFSTFLSLLEAADLKELLTQPGDWTLFVPTNDAFKGMTSEEKEILIRDKNALQNIILYHLTPGVFIGKGFEPGVTNILKTTQGSKIFLKEVNDTLLVNELKSKESDIMTTNGVIHVVDKLLYPADTPVGNDQLLEILNKLIKYIQIKFVRGSTFKEIPVTVYTTKIITKVVEPKIKVIEGSLQPIIKTEGPTLTKVKIEGEPEFRLIKEGETITEVIHGEPIIKKYTKIIDGVPVEITEKETREERIITGPEIKYTRISTGGGETEETLKKLLQEEVTKVTKFIEGGDGHLFEDEEIKRLLQGDTPVRKLQANKKVQGSRRRLREGRSQ
- Effect of rPN on proliferation (MDA-MB-231 cells [1]): significantly showed induction of cell proliferation
- Effect of rPN on proliferation (MCF-7 cells [2]): could increase cell numbers
- Effect of rPN on migration rate (MDA-MB-231 cells [3]): had a higher migration rate than the untreated control with statistical significance
- Effect of rPN on migration rate (MCF-7 cells [4]): had a higher migration rate than the untreated control with statistical significance
- Combination index (CI) of PN (MDA-MB-231 cells [5]): 2.36
- Combination index (CI) of PN (MCF-7 cells [6]): 1.39
- Effect of PN on Akt phosphorylation [7]: could increase phosphorylation of Akt
- Effect of PN on survivin expression [8]: could increase phosphorylation of Akt and survivin expression in all BCA cells
